From paper PMC2557045

Experiments:
[1] = target: atToc159-A864R (expressed from CaMV35S::atTOC159-A864R in ppi2 plants, A864R:ppi2) (Arabidopsis thaliana) (UniProt O81283); assay: cross-linking
[2] = substrate: Nc1nc2c(ncn2[C@@H]2O[C@H](COP(=O)(O)OP(=O)(O)OP(=O)(O)O)[C@@H](O)[C@H]2O)c(=O)[nH]1; assay: GTP hydrolysis assay, immunoprecipitated protein on Sepharose beads; assay type: biochemical, Arabidopsis thaliana; settings: antibody/protein A-Sepharose-bound receptor
[3] = substrate: Nc1nc2c(ncn2[C@@H]2O[C@H](COP(=O)(O)OP(=O)(O)OP(=O)(O)O)[C@@H](O)[C@H]2O)c(=O)[nH]1; assay: GTP hydrolysis assay, purified soluble G-domain; assay type: biochemical, Arabidopsis thaliana

| Molecule | fold of coimmunoprecipitated preSSu against wild-type atToc159 [1] | Km [2] | kcat [2] | Km [3] | kcat [3] |
| --- | --- | --- | --- | --- | --- |
| preSSu ([35S]-labeled chloroplast preprotein) (natural protein) | 3 fold |  |  |  |  |
| atToc159 (full-length) (Arabidopsis thaliana) (protein) MDSKSVTPEPTNPFYASSGQSGKTYASVVAAAAAAAADKEDGGAVSSAKELDSSSEAVSGNSDKVGADDLSDSEKEKPNLVGDGKVSDEVDGSLKEDSTTPEATPKPEVVSGETIGVDDVSSLSPKPEAVSDGVGVVEENKKVKEDVEDIKDDGESKIENGSVDVDVKQASTDGESESKVKDVEEEDVGTKKDDEGESELGGKVDVDDKSDNVIEEEGVELTDKGDVIVNSSPVESVHVDVAKPGVVVVGDAEGSEELKINADAETLEVANKFDQIGDDDSGEFEPVSDKAIEEVEEKFTSESDSIADSSKLESVDTSAVEPEVVAAESGSEPKDVEKANGLEKGMTYAEVIKAASAVADNGTKEEESVLGGIVDDAEEGVKLNNKGDFVVDSSAIEAVNVDVAKPGVVVVGDVEVSEVLETDGNIPDVHNKFDPIGQGEGGEVELESDKATEEGGGKLVSEGDSMVDSSVVDSVDADINVAEPGVVVVGAAKEAVIKEDDKDDEVDKTISNIEEPDDLTAAYDGNFELAVKEISEAAKVEPDEPKVGVEVEELPVSESLKVGSVDAEEDSIPAAESQFEVRKVVEGDSAEEDENKLPVEDIVSSREFSFGGKEVDQEPSGEGVTRVDGSESEEETEEMIFGSSEAAKQFLAELEKASSGIEAHSDEANISNNMSDRIDGQIVTDSDEDVDTEDEGEEKMFDTAALAALLKAATGGGSSEGGNFTITSQDGTKLFSMDRPAGLSSSLRPLKPAAAPRANRSNIFSNSNVTMADETEINLSEEEKQKLEKLQSLRVKFLRLLQRLGHSAEDSIAAQVLYRLALLAGRQAGQLFSLDAAKKKAVESEAEGNEELIFSLNILVLGKAGVGKSATINSILGNQIASIDAFGLSTTSVREISGTVNGVKITFIDTPGLKSAAMDQSTNAKMLSSVKKVMKKCPPDIVLYVDRLDTQTRDLNNLPLLRTITASLGTSIWKNAIVTLTHAASAPPDGPSGTPLSYDVFVAQCSHIVQQSIGQAVGDLRLMNPSLMNPVSLVENHPLCRKNREGVKVLPNGQTWRSQLLLLCYSLKVLSETNSLLRPQEPLDHRKVFGFRVRSPPLPYLLSWLLQSRAHPKLPGDQGGDSVDSDIEIDDVSDSEQEDGEDDEYDQLPPFKPLRKTQLAKLSNEQRKAYFEEYDYRVKLLQKKQWREELKRMKEMKKNGKKLGESEFGYPGEEDDPENGAPAAVPVPLPDMVLPPSFDSDNSAYRYRYLEPTSQLLTRPVLDTHGWDHDCGYDGVNAEHSLALASRFPATATVQVTKDKKEFNIHLDSSVSAKHGENGSTMAGFDIQNVGKQLAYVVRGETKFKNLRKNKTTVGGSVTFLGENIATGVKLEDQIALGKRLVLVGSTGTMRSQGDSAYGANLEVRLREADFPIGQDQSSFGLSLVKWRGDLALGANLQSQVSVGRNSKIALRAGLNNKMSGQITVRTSSSDQLQIALTAILPIAMSIYKSIRPEATNDKYSMY |  | 3.2 ± 0.34 µM | 0.000233 ± 3.67e-05 s⁻¹ |  |  |
| atToc159 (full-length) (Arabidopsis thaliana; A864R) (protein) MDSKSVTPEPTNPFYASSGQSGKTYASVVAAAAAAAADKEDGGAVSSAKELDSSSEAVSGNSDKVGADDLSDSEKEKPNLVGDGKVSDEVDGSLKEDSTTPEATPKPEVVSGETIGVDDVSSLSPKPEAVSDGVGVVEENKKVKEDVEDIKDDGESKIENGSVDVDVKQASTDGESESKVKDVEEEDVGTKKDDEGESELGGKVDVDDKSDNVIEEEGVELTDKGDVIVNSSPVESVHVDVAKPGVVVVGDAEGSEELKINADAETLEVANKFDQIGDDDSGEFEPVSDKAIEEVEEKFTSESDSIADSSKLESVDTSAVEPEVVAAESGSEPKDVEKANGLEKGMTYAEVIKAASAVADNGTKEEESVLGGIVDDAEEGVKLNNKGDFVVDSSAIEAVNVDVAKPGVVVVGDVEVSEVLETDGNIPDVHNKFDPIGQGEGGEVELESDKATEEGGGKLVSEGDSMVDSSVVDSVDADINVAEPGVVVVGAAKEAVIKEDDKDDEVDKTISNIEEPDDLTAAYDGNFELAVKEISEAAKVEPDEPKVGVEVEELPVSESLKVGSVDAEEDSIPAAESQFEVRKVVEGDSAEEDENKLPVEDIVSSREFSFGGKEVDQEPSGEGVTRVDGSESEEETEEMIFGSSEAAKQFLAELEKASSGIEAHSDEANISNNMSDRIDGQIVTDSDEDVDTEDEGEEKMFDTAALAALLKAATGGGSSEGGNFTITSQDGTKLFSMDRPAGLSSSLRPLKPAAAPRANRSNIFSNSNVTMADETEINLSEEEKQKLEKLQSLRVKFLRLLQRLGHSAEDSIAAQVLYRLALLAGRQAGQLFSLDAAKKKAVESEAEGNEELIFSLNILVLGKRGVGKSATINSILGNQIASIDAFGLSTTSVREISGTVNGVKITFIDTPGLKSAAMDQSTNAKMLSSVKKVMKKCPPDIVLYVDRLDTQTRDLNNLPLLRTITASLGTSIWKNAIVTLTHAASAPPDGPSGTPLSYDVFVAQCSHIVQQSIGQAVGDLRLMNPSLMNPVSLVENHPLCRKNREGVKVLPNGQTWRSQLLLLCYSLKVLSETNSLLRPQEPLDHRKVFGFRVRSPPLPYLLSWLLQSRAHPKLPGDQGGDSVDSDIEIDDVSDSEQEDGEDDEYDQLPPFKPLRKTQLAKLSNEQRKAYFEEYDYRVKLLQKKQWREELKRMKEMKKNGKKLGESEFGYPGEEDDPENGAPAAVPVPLPDMVLPPSFDSDNSAYRYRYLEPTSQLLTRPVLDTHGWDHDCGYDGVNAEHSLALASRFPATATVQVTKDKKEFNIHLDSSVSAKHGENGSTMAGFDIQNVGKQLAYVVRGETKFKNLRKNKTTVGGSVTFLGENIATGVKLEDQIALGKRLVLVGSTGTMRSQGDSAYGANLEVRLREADFPIGQDQSSFGLSLVKWRGDLALGANLQSQVSVGRNSKIALRAGLNNKMSGQITVRTSSSDQLQIALTAILPIAMSIYKSIRPEATNDKYSMY |  | 1.9 ± 0.30 µM | 7e-05 ± 1.7e-06 s⁻¹ |  |  |
| atToc159 G-domain (atToc159G) (Arabidopsis thaliana) (protein) IFSLNILVLGKAGVGKSATINSILGNQIASIDAFGLSTTSVREISGTVNGVKITFIDTPGLKSAAMDQSTNAKMLSSVKKVMKKCPPDIVLYVDRLDTQTRDLNNLPLLRTITASLGTSIWKNAIVTLTHAASAPPDGPSGTPLSYDVFVAQCSHIVQQSIGQAVGDLRLMNPSLMNPVSLVENHPLCRKNREGVKVLPNGQTWRSQLLLLCYSLKVLSETNSLLRPQEPLDHRK |  |  |  | 9.0 ± 1.35 µM | 0.000317 ± 2.5e-05 s⁻¹ |
